Where no end group is shown, it is not given here.
How the values were obtained:
[1] = molecular target: T1, NRP1 displayed on the human umbilical vein endothelial cell (HUVEC) surface (Homo sapiens, UniProt O14786); experiment: Confocal co-localization with NRP1 on HUVEC surface; type: cell-based; conditions: 1 μM, 30 minutes, 4° C., confocal microscopy
T1 construct: endogenous in cells; host or cells: HUVEC
Description: In an experiment for biological identification of the peptides that binds specifically to NRP1, human umbilical vein endothelial cells (HUVECs) overexpressing NRP1 were used.
Specifically, 5×10^4 HUVEC cells were added to each well of a 24-well plate and incubated in 0.5 ml of EGM2 (Endothelial growth medium, Promocell) medium for 24 hours under the conditions of 5% CO2 and 37° C. […] Next, the medium was removed, and each well was washed with cold PBS. Then, the fusion protein wherein the selected peptide that binds specifically to NRP1 is fused to the antibody heavy-chain constant region was stained with FITC (green fluorescence)-labeled antibody (Sigma) that specifically recognizes Fc, and NRP1 was stained with primary antibody (Abcam) that recognizes NRP1 and with TRITC (red fluorescence)-labeled secondary antibody. The nucleus was stained (blue fluorescence) with DAPI and analyzed by confocal microscopy.

[2] = tested on: VE-cadherin; experiment: Western blot of VE-cadherin in HUVEC; type: cell-based, human
Description: Specifically, 5×10^5 HUVEC cells were seeded into each well of a 6-well plate and incubated for 24 hours, […] constant Fc region and the selected peptide that binds specifically to NRP1, for 10 minutes, followed by Western blot analysis. After SDS-PAGE, the gel was transferred to a PVDF membrane, and detection was performed using primary antibodies (SantaCruz) that recognize VE-cadherin and β-actin and using HRP-conjugated secondary antibody (SantaCruz), and analysis was performed using ImageQuant LAS4000 mini (GE Healthcare).

[3] = tested on: human umbilical vein endothelial cells (HUVECs); experiment: Transwell assay of penetration of vascular endothelial cells (dextran-FITC); type: cell-based; conditions: 1 μM for 30 minutes (VEGF165A about 1.3 nM); dextran-FITC fluorescence in lower chamber
Description: Specifically, 5×10^4 human umbilical vein endothelial cells (HUVECs) were seeded into the upper chamber of a transwell plate (Corning) and incubated in EGM2 for 3 days under the conditions of 37° C. and 5% CO2. […] Then, 50 μl of dextran-FITC (Sigma) was added to the upper chamber. After 30 minutes, based on the principle according to which the fluorescent substance would be observed when penetration into the vascular endothelial cells was increased, the medium was sampled from the lower chamber and the fluorescence thereof was measured.

[4] = tested on: A431 cells expressing neuropilin-1; experiment: Immunohistochemistry of tumor tissue penetration in A431 xenograft; type: in vivo, Balb/c nude mice; conditions: 10 mg/kg intravenously, 15 hours after injection
Description: At 15 hours after injection, the tumor was extracted from the mice and subjected to immunohistochemistry. The extracted tumor tissue was sectioned to a thickness of 20 μm by a frozen-section method, and the blood vessels were stained with the primary antibody CD31 antibody (BD Pharmingen) and TRITC (red fluorescence)-labeled secondary antibody that recognizes the same. In addition, to observe the distribution of the Fc-TPP1, Fc-TPP8 and Fc-TPP11 fusion proteins in the tissue, an FITC (green fluorescence)-labeled antibody that recognizes Fc was used.

[5] = tested on: E-cadherin; experiment: Western blot of E-cadherin in FaDu cells; type: cell-based; conditions: human head and neck cancer FaDu cells
Description: Specifically, 5×10^5 HUVEC cells were seeded into each well of a 6-well plate and incubated for 24 hours, and then treated with 0.1 μM of the fusion protein of the antibody heavy-chain constant Fc region and the selected peptide that binds specifically to NRP1, for 10 minutes, followed by Western blot analysis. After SDS-PAGE, the gel was transferred to a PVDF membrane, and detection was performed using primary antibodies (SantaCruz) that recognize VE-cadherin and β-actin and using HRP-conjugated secondary antibody (SantaCruz), and analysis was performed using ImageQuant LAS4000 mini (GE Healthcare).
In order to examine whether the Fc-TPP1, Fc-TPP8 and Fc-TPP11 fusion proteins also have an enhanced ability to penetrate cancer cells, a change in E-cadherin in human head and neck cancer FaDu cells expressing NRP1 was analyzed by Western blot analysis under the same conditions as described above.

[6] = molecular target: T2, NRP1-b1b2 (273-586) protein (Homo sapiens, UniProt O14786); experiment: Competitive ELISA with VEGF165A / RPARPAR on NRP1-b1b2; type: binding
T2 construct: made in house
Description: In order to evaluate competitive binding of the TPP11 peptide, which binds specifically to NRP1 without binding to NRP2, and VEGF165A and a RPARPAR peptide, known to bind to the arginine-binding pocket of the NRP1-b1 domain, competitive ELISA was performed.
Specifically, binding NRP1-b1b2 (273-586) protein to each well of a 96-well EIA/RIA plate or a 96-well EIA/RIA black plate (COSTAR Corning In., USA) at room temperature for […], is followed by washing three times with 0.1% PBST (0.1% Tween20, pH 7.4, 137 mM NaCl, 10 mM Phosphate, 2.7 mM KCl, SIGMA-ALDRICH co., USA) for 10 minutes. After binding with 5% skim milk (5% Skim milk, pH 7.4, 137 mM NaCl, 10 mM Phosphate, 2.7 mM KCl, SIGMA-ALDRICH co., USA) for 1 hour, each well was washed three times with 0.1% PBST (0.1% Tween20, pH 7.4, 137 mM NaCl, 10 mM Phosphate, 2.7 mM KCl, SIGMA-ALDRICH co., USA) for 10 minutes. […] Then, each mixture was incubated with AP-conjugated anti-human antibody (alkaline phosphatase-conjugated anti-human mAb, Sigma, USA), and then reacted with pNPP ([…], SIGMA-ALDRICH co., USA), and the absorbance at 405 nm was measured.

[7] = tested on: VEGF165A-induced angiogenesis; experiment: In vivo matrigel plug assay; design: species or system Balb/c nude mice; conditions: 200 μg in matrigel plug with A431 cells, 8 days
Description: Additionally, in order to examine anti-angiogenesis activity in vivo, a matrigel plug assay was performed. […] After 8 days, the matrigel plug was extracted, imaged (FIG. 15(B)), and then sectioned to a thickness of 20 μm by a frozen-section method, and subjected to immunohistochemistry. The blood vessels were stained with the primary antibody CD31 and a TRITC (red fluorescence)-labeled secondary antibody recognizing the same, and the density of the blood vessels was measured.

[8] = molecular target: T3, biotinylated NRP1-b1b2 (Homo sapiens, UniProt O14786); experiment: FACS of yeast surface-displayed clones binding biotinylated NRP1-b1b2; conditions: yeast surface display, compared with A22p
T3 construct: biotin (chemical label on amines, Sulfo-NHS-LC-biotin); made in house
From the text: […] In addition, in the MACS and FACS processes, non-biotinylated NRP2-b1b2 was used as a competitive protein for biotinylated NRP1-b1b2 at a 10-fold higher concentration, and individual clones that bind to NRP1-b1b2 were selected.

[9] = molecular target: T2, NRP1-b1b2 (273-586) protein; experiment: ELISA binding to NRP1-b1b2; conditions: synthetic peptide not fused to Fc, 100 nM
Description: The binding affinities of purified Fc-TPP1, Fc-TPP8 and Fc-TPP11 fusion proteins for the b1b2 domains of NRP1 and NRP2 were analyzed by ELISA (Enzyme Linked Immunosorbent Assay).
To examine specificity for NRP1, the control VEGF165A and Fc, A22p, and each of the fusion proteins wherein the selected peptide that binds specifically to NRP1 is fused to the antibody heavy-chain constant Fc region, was biotinylated using a NHS-biotin kit (SIGMA-ALDRICH co., USA).
1 μg of each of NRP1-b1b2 (273-586) protein, NRP2-b1b2 (275-595) protein and the control group VEGFR2 (46-753) was immobilized in each well of a 96-well EIA/RIA plate (COSTAR Corning In., USA) at room temperature for 1 hour, and then washed three times with 0.1% PBST (0.1% Tween20, pH 7.4, 137 mM NaCl, 10 mM Phosphate, 2.7 mM KCl, SIGMA-ALDRICH co., USA) for 10 minutes. After binding with 5% skim milk (5% Skim milk, pH 7.4, 137 mM NaCl, 10 mM Phosphate, 2.7 mM KCl, SIGMA-ALDRICH co., USA) for 1 hour, each well was washed three times with 0.1% PBST (0.1% Tween20, pH 7.4, 137 mM NaCl, 10 mM Phosphate, 2.7 mM KCl, SIGMA-ALDRICH co., USA) for 10 minutes. […] Each well was bound with AP-conjugated anti-biotin antibody (alkaline phosphatase-conjugated anti-biotin mAb, Sigma, USA), and then reacted with pNPP ([…], SIGMA-ALDRICH co., USA), and the absorbance at 405 nm was measured.

Substance: Fc-A22p: control Fc fusion of A22p peptide (HTPGNSNKWKHLQENKKGRPRR) that binds to both NRP1 and NRP2 (also: fused to Fc, not in chain)
- binding to NRP1 on the HUVEC cell surface [1]: did bind to NRP1 on the HUVEC cell surface
- change in VE-cadherin at 1 μM ([2]; 1 μM): VE-cadherin significantly decreased
- change in VE-cadherin ([2]; 10 minutes): a decrease in VE-cadherin was observed
- ability to penetrate vascular endothelial cells [3]: had an increased ability to penetrate vascular endothelial cells
- tumor tissue accumulation and penetration [4]: selectively reached tumor tissue
- change in E-cadherin [5]: induced a decrease in E-cadherin
- binding to NRP1-b1b2 competitively with VEGF165A ([6]; VEGF165A 25 nM to 0.02 nM): overlapped a portion of NRP1 to which VEGF165A did bind
- VEGF165A-induced angiogenesis (density of blood vessels, CD31) [7]: inhibited VEGF165A-induced angiogenesis in living mice

Substance: TPP1: NRP1-targeting peptide HTPGNSNQFVLTSTRPPR, SEQ ID NO: 1 (Synthetic construct (TPP1))
- binding to 100 nM biotinylated NRP1-b1b2 (mean fluorescence intensity) [8]: showed higher mean fluorescence intensities

Substance: TPP8: NRP1-targeting peptide HTPGIATRTPR, SEQ ID NO: 2 (Synthetic construct (TPP8))
- binding to 100 nM biotinylated NRP1-b1b2 (mean fluorescence intensity) [8]: showed higher mean fluorescence intensities

Substance: TPP11: NRP1-targeting peptide HTPGNSKPTRTPRR, SEQ ID NO: 3 (Synthetic construct (TPP11))
- lower affinity than Fc-TPP11 for NRP1-b1b2 protein [9]: at least 100 fold
- competitive binding of synthesized peptide with RPARPAR peptide and VEGF165A [6]: inhibited the binding of the RPARPAR peptide and VEGF165 to NRP1
- binding to 100 nM biotinylated NRP1-b1b2 (mean fluorescence intensity) [8]: showed higher mean fluorescence intensities

Source: patent US10400022B2, “Neuropilin-1 specific binding peptide, fusion protein fused with same, and use thereof” (AJOU UNIVERSITY INDUSTRY-ACADEMIC COOPERATION FOUNDATION, priority 2015, dated 2019)
